In patent US20200079855A1 (Pfizer, published 2020):

Assays:
[1] = target: T1, mouse αvβ8 integrin on C8-S cells (mouse, UniProt P43406 31-1044; Q0VBD0 22-767); experiment: flow cytometry, IgG binding to C8-S cells (MFI PE-A), right panel ADWA11_IgG_C8-S cell binding; EC50 unit inferred, axis Log10 [mAb] nM
T1 construct: Endogenous αvβ8 of C8-S mouse astrocyte cells; also called C8-S (mouse astrocyte); C8-S (mouse avb8)
Experimental: (§1) 100,000 cells were incubated with a dilution series of the anti-αvβ8 or human IgG1_3 mut Isotype antibody for three to four hours on ice. The cells were spun down for five minutes at 300 g force. The cells were then washed three times with wash buffer (PBS+0.2% BSA) to remove excess unbound antibodies. After thorough washing, cells were incubated with Fab′2 anti-human Fc-PE (Invitrogen) or goat Fab′2 anti-mouse-APC (Jackson Labs) at 1:1000 dilution along with LIVE/DEAD fixable cell stain (Invitrogen) at 1:2000 to distinguish live cells. The whole content was incubated for 30 minutes on ice. After washing, the stained cells were analyzed on BD biosciences Fortessa flow cytometer (gated for live cells) using FlowJo analysis software. The mean fluorescence intensities (MFI) at different antibody concentrations were plotted for various antibodies.
(§2) The apparent-affinity of ADWA11 2.4 for U251 (human glioblastoma) or C8-S (mouse astrocyte) cells was also evaluated in a cell-binding assay, according to the methods as generally described herein. Briefly, cells were incubated with a serial dilution of ADWA11 2.4 for 4 hours on ice, followed by detection on bound antibody with an anti-human-PE secondary antibody, and analyzed by flow cytometry.

[2] = target: T2, human αvβ6 integrin on HEK293-F cells (human, UniProt P06756 31-1048; P18564 22-788); experiment: flow cytometry, titration of ADWA11 2.4 on HEK cells overexpressing human integrin β6 (gMFI minus secondary), right panel
T2 construct: whole, on cells; HEK293-F cells transiently expressing the full length beta subunit; also called HEK cells expressing αvβ6
Experimental: (§3) For cell-binding experiments with HEK293-F cells overexpressing human αvβ3, αvβ5, αvβ6, αvβ8. HEK293-F cells transiently expressing full length human integrin beta 3 (Accession No. NP_000203.2), human integrin beta 5 (Accession No. NP_002204.2), human integrin beta 6 (Accession No. NP_000879.2), or human integrin beta 8 (Accession No. NP_002205.1) were prepared using proprietary vectors and vendor provided protocols. Cells were harvested after 4 days and analyzed for integrin expression. To characterize Integrin αvβ3, αvβ5, αvβ6, αvβ8 expression 100,000 cells were incubated in the indicated commercially available or directly conjugated proprietary antibodies for 30 minutes, along with LIVE/DEAD fixable cell stain (Invitrogen) at 1:2000 to distinguish live cells. Cells were spun down for five minutes at 300 g force. The cells were then washed twice with wash buffer (PBS+0.2% BSA) to remove excess unbound antibodies and ananalysed on BD biosciences Fortessa flow cytometer
(§4) 100,000 cells were incubated with a dilution series of the anti-αvβ8 or human IgG1_3 mut Isotype antibody for three to four hours on ice. […] After washing, the stained cells were analyzed on BD biosciences Fortessa flow cytometer (gated for live cells) using FlowJo analysis software. The mean fluorescence intensities (MFI) at different antibody concentrations were plotted for various antibodies.

[3] = target: T3, human αvβ8 integrin on U251 cells (human, UniProt P06756 31-1048); experiment: flow cytometry on live U251 cells, 4 hours on ice, anti-human-PE secondary, n=3
[4] = target: T3, human αvβ8 integrin on U251 cells
[5] = target: T3, human αvβ8 integrin on U251 cells; experiment: flow cytometry on U251 cells
[6] = target: T1, mouse αvβ8 integrin on C8-S cells; experiment: flow cytometry on C8-S cells
Experimental: as §1, §2

[7] = target: T4, human αvβ8 integrin on HEK293-F cells (human, UniProt P06756 31-1048; P26012 43-769); experiment: flow cytometry, titration on HEK cells overexpressing human integrin β8, right panel
T4 construct: whole, on cells; HEK293-F cells transiently expressing the full length beta subunit; also called HEK cells expressing αvβ8
Experimental: as §3, §4

[8] = target: T1, mouse αvβ8 integrin on C8-S cells; experiment: cell-based or functional assay
[9] = target: T3, human αvβ8 integrin on U251 cells; experiment: cell-based or functional assay
[10] = target: T5, human αvβ5 integrin on HEK293-F cells (human, UniProt P06756 31-1048; P18084 24-799); experiment: flow cytometry, titration of ADWA11 2.4 on HEK cells overexpressing human integrin β5 (gMFI minus secondary), right panel
T5 construct: whole, on cells; HEK293-F cells transiently expressing the full length beta subunit; also called HEK cells expressing αvβ5
Experimental: as §3, §4

[11] = target: T6, human αvβ3 integrin on HEK293-F cells (human, UniProt P06756 31-1048; P05106 27-788); experiment: flow cytometry, titration of ADWA11 2.4 on HEK cells overexpressing human integrin β3 (gMFI minus secondary), right panel
T6 construct: whole, on cells; HEK293-F cells transiently expressing the full length beta subunit; also called HEK cells expressing αvβ3
Experimental: as §3, §4

[12] = target: T3, human αvβ8 integrin on U251 cells; experiment: flow cytometry, IgG binding to U251 cells (MFI PE-A), left panel ADWA11_IgG_U251 cell binding; EC50 unit inferred, axis Log10 [mAb] nM
[13] = target: T7, recombinant human αvβ6 integrin (human, UniProt P06756 31-992; P18564 22-707); experiment: SPR (Biacore), recombinant integrin immobilised
T7 construct: Used in ELISA and immobilised on the Biacore chip; construct not described; also called hαvβ6; AVB6
Experimental: (§5) To evaluate the specificity of ADWA11 2.4, recombinant human αvβ6 and αvβ3 were immobilized on a Biacore chip and binding of the parental murine and humanized mAb variant of ADWA11 2.4 was determined.

[14] = target: T8, recombinant human αvβ3 integrin (human, UniProt P06756 31-992; P05106 27-718); experiment: SPR (Biacore), recombinant integrin immobilised
T8 construct: Used in ELISA and immobilised on the Biacore chip; construct not described; also called hαvβ3; AVB3
Experimental: as §5

T1 sequence (P43406 31-1044 limits assumed, chain 1 of 2): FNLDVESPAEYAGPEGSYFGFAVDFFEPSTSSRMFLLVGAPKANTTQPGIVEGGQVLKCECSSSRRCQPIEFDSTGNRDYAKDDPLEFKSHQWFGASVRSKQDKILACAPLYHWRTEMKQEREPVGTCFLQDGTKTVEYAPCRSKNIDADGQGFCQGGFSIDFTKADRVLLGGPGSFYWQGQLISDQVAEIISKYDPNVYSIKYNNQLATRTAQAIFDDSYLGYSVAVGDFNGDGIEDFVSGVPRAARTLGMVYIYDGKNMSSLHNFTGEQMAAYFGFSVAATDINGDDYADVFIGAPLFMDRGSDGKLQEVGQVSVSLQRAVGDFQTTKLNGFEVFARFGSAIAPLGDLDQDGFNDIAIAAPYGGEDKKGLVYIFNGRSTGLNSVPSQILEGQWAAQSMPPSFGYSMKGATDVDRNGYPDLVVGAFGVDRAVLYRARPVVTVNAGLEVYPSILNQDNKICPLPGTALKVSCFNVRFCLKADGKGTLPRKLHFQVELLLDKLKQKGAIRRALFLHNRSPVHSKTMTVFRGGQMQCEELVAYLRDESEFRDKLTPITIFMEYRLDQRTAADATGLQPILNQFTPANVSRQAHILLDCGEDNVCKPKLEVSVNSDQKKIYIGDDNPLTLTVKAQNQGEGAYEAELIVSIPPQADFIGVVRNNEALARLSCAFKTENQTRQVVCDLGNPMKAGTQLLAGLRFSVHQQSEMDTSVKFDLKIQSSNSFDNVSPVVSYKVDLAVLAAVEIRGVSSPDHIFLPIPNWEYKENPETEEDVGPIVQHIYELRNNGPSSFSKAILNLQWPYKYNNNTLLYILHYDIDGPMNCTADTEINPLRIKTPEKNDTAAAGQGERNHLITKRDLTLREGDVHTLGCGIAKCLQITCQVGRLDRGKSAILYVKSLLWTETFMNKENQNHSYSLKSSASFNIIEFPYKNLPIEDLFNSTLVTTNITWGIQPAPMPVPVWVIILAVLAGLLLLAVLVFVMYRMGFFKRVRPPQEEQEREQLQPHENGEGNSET
T1 sequence (Q0VBD0 22-767 limits assumed, chain 2 of 2): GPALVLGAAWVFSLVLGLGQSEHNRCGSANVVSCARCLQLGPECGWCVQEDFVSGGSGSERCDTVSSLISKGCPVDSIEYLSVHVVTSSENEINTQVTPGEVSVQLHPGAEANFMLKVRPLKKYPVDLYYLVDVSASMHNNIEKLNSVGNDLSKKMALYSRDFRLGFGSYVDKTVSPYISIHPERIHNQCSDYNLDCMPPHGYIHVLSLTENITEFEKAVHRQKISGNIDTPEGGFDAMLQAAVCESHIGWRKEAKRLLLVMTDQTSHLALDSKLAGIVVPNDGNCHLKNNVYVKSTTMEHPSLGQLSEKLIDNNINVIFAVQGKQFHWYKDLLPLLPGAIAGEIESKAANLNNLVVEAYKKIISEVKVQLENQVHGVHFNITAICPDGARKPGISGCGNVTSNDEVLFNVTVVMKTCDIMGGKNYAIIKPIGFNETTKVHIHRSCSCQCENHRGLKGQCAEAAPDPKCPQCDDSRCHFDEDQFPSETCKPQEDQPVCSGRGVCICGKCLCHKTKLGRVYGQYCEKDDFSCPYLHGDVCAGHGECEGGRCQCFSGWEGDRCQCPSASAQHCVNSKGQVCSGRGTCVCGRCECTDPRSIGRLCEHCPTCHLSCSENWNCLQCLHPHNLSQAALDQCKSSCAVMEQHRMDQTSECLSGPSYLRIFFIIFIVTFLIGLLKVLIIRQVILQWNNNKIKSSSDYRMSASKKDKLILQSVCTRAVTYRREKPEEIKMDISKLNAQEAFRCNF
T6 sequence (P06756 31-1048, chain 1 of 2): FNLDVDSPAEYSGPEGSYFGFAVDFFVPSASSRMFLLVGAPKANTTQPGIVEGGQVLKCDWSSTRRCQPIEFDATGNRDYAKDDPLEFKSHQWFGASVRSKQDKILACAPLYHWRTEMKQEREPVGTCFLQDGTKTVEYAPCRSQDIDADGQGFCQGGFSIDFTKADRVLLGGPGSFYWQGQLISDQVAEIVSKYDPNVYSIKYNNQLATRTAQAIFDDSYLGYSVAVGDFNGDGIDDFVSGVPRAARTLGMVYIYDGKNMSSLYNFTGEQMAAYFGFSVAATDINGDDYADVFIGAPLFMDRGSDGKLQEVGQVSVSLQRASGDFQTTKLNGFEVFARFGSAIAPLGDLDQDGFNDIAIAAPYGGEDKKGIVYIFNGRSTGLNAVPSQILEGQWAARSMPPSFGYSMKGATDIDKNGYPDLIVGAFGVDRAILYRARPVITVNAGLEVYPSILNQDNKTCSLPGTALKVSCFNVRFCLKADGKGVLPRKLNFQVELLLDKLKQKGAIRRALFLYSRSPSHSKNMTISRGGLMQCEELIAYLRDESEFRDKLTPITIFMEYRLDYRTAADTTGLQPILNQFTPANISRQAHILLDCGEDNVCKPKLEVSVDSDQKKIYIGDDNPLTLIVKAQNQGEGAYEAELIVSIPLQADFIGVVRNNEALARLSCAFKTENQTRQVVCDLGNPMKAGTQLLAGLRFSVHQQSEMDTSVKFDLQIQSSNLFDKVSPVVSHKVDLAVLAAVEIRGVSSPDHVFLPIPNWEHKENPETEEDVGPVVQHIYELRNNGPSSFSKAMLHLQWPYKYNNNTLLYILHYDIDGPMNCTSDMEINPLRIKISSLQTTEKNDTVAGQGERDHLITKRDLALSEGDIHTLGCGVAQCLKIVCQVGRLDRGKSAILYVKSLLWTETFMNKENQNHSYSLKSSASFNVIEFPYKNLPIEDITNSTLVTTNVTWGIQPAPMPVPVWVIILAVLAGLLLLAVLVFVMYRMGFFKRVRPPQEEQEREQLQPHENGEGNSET
T6 sequence (P05106 27-788, chain 2 of 2): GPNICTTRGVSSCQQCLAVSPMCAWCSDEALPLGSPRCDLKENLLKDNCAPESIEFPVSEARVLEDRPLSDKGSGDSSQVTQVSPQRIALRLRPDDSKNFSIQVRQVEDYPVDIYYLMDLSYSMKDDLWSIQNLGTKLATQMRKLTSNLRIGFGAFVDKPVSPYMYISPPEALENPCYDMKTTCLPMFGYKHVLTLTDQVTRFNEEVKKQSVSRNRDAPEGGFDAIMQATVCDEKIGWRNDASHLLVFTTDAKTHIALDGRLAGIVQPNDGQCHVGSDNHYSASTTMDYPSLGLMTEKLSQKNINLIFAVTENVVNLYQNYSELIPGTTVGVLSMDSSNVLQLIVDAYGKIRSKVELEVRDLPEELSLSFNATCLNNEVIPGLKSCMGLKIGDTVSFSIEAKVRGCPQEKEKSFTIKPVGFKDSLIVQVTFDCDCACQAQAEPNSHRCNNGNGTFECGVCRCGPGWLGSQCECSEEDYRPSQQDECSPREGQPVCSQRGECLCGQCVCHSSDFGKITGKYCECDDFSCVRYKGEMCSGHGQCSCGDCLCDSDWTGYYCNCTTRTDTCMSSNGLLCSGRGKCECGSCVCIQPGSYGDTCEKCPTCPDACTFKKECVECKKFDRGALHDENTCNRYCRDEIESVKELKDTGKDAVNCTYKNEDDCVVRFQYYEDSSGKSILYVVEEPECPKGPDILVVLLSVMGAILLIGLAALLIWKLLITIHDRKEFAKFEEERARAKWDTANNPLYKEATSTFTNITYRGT
T5 sequence (P06756 31-1048, chain 1 of 2): as the sequence (P06756 31-1048, chain 1 of 2) above
T5 sequence (P18084 24-799, chain 2 of 2): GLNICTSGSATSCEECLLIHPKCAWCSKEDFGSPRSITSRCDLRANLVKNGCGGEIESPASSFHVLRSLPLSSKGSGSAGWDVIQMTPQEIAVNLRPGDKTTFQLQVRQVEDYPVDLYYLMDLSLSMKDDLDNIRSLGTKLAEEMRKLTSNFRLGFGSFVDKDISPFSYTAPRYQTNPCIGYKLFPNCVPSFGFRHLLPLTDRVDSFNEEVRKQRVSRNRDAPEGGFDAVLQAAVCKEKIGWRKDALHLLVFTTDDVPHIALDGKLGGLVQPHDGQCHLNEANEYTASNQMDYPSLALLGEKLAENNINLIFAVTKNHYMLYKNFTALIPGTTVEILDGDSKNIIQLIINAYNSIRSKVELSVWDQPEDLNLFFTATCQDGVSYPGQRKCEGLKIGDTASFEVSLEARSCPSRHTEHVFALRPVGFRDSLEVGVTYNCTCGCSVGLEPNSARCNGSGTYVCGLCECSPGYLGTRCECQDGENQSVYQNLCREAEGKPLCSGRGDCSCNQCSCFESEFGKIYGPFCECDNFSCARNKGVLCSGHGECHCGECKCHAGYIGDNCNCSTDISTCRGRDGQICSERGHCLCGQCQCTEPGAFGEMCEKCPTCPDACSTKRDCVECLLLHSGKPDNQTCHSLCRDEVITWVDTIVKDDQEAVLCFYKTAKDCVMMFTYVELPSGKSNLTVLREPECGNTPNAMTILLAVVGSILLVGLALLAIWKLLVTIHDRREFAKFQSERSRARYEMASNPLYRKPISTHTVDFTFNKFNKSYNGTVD

B1: ADWA11 2.4 (IgG) (antibody, V domains shown)
VH: EVQLVESGGGLVQPGGSLRLSCAASGFNIKDYYMNWVRQAPGKGLEWVGWIDPDQGNTIYEPKFQGRFTISADTSKNSAYLQMNSLRAEDTAVYYCARRLLMDYWGQGTLVTVSS
VL: DIQMTQSPSSLSASVGDRVTITCRSTKSLSHFNGNTYLFWYQQKPGKAPKRLIYYMSSLASGVPSRFSGSGSGTDFTLTISSLQPEDFATYYCQQSLEYPFTFGGGTKVEIKR
notes: Human IgG1 effectorless (L234A, L235A, G237A), kappa; also called ADWA11 VH05-2/VK01(2.4); ADWA11_VH05-2_VK01(2.4)
[1]
  EC50: 0.115 nM
[2]
  binding result: no binding (tested: 100 nM)
[3]
  EC50: 0.126 nM
[4]
  IC50 (read off the curve): 0.1 nM
[5]
  EC50: 0.256 nM
[6]
  EC50: 0.145 nM
[7]
  EC50 (read off the curve): ~2 nM
[8]
  IC50 (read off the curve): ~0.2 nM
[9]
  IC50 in the TGFβ transactivation assay with U251 cells: 0.199 nM
[10]
  binding result: no binding (tested: 100 nM)
[11]
  binding result: no binding (tested: 100 nM)
[12]
  EC50: 0.105 nM
[13]
  binding result: no binding
[14]
  binding result: no binding
